Results taken from patent US10709762B2, “Use of M-CSF for preventing or treating myeloid cytopenia and related complications” (priority 2013, dated 2020).

Key:
[1] = tested on: PU.1 expression in sorted HSC; test: Quantitative RT-PCR of PU.1 expression in sorted HSC in culture; assay type: cell-based, mice; details: 16 h in culture with cytokine, 100 ng/ml
Experimental: CD150+CD34− KSLF HSC or CD150+CD34− CD48− KSLF HSC (single cells) were sorted into S-clone SF-03 medium (Sanko Jyunyaku) with 10% FBS supplemented with 100 U/ml penicillin and […] streptomycin (both Invitrogen) and cultivated in uncoated U-Shape 96 well plates (Greiner) in 100 μl SCM, 20 ng/ml rSCF, 50 ng/ml rTPO+/−100 ng/ml rM-CSF or 100 ng/ml rGM-CSF or 100 ng/ml rG-CSF. All cytokines were murine and from PeproTech. Cell viability was analyzed by AnnexinV and Propidium iodide FACS staining^35.
Total RNA was isolated and reverse transcribed with μMACS™ ONE-STEP T7 template kit (Miltenyi Biotec) and analysed by quantitative real-time PCR using TAQMAN® Universal PCR Master Mix and a 7500 Fast Real Time PCR System sequence detection system (both Applied Biosystem), following the manufacturers' instructions.

[2] = tested on: Aspergillus fumigatus; test: Survival after Aspergillus fumigatus infection following HS/PC transplantation; assay type: in vivo, mice; details: A. fumigatus infection on D8 after irradiation and HS/PC transplantation; three injections of 10 μg M-CSF
Experimental: (§1) To study the functional impact of MCSF mediated HSC commitment during infections, two separate series of experiments were performed. In all experiments, after lethal irradiation of recipients, 2500 HS/PC with 200,000 cKit-carrier cells from donors were grafted.
(§2) Uninfected mice that received HS/PC transplants served as controls for efficient life saving transplantation (black line; FIGS. 8A, 8B and FIGS. 10A, 10B; n=8). Two other groups of mice received either 3 injections of MCSF (rhMCSF or Bacculo virus produced mMCSF) or PBS on the day of HS/PC transplantation.
(§3) One-week post transplantation these mice were challenged with lethal doses of either the bacteria Pseudomonas aeruginosa or the opportunistic fungus Aspergillus fumigatus.
Each mouse received three injections of 10 μg M-CSF: 1 h before HS/PC transplantation; 6 h and 18 h post-transplantation. Human M-CSF (rhMCSF, Chiron Corporation Inc., USA, now part of Novartis AG) and Mouse M-CSF was expressed in baculovirus (Bac. virus mMCSF^56) were used for the study.
Aspergillus fumigatus FGSC 1100 was provided by the Centre International de Ressources Microbiennes—Champignons Filamenteux (CIRM-CF, Marseille, France). For each experiment, cultures were grown on Malt agar medium (2% malt extract, 2% Bacto-agar DIFCO) for 5 days at 25° C. Conidial suspension was prepared in sterile saline according to Bitmansour et al. (2002)^55. […]

[3] = tested on: Pseudomonas aeruginosa; test: Survival after Pseudomonas aeruginosa infection following HS/PC transplantation; assay type: in vivo, mice; details: P. aeruginosa infection on Day8 after irradiation and HS/PC transplantation; three injections of 10 μg M-CSF
Experimental: as §1, §2, §3
CD45.1 and C57Bl/6 mice were obtained from Charles River. 10-14 weeks old sex-matched CD45.2 recipients were reconstituted as described^3 with bone marrow derived KSL (c-Kit(CD117)+, Sca+, Lin−) HS/PC isolated from 6-8 weeks old CD45.1. For in vivo injections the indicated concentrations of M-CSF and/or sorted cells were injected in 100-200 μl of PBS into the retro-orbital sinus. For HS/PC transplantation 2500 KLS HS/PC were sorted from CD45.1 mice and mixed with 200,000 cKit− CD45.2 or cKit−, Terr119+ carrier cells prior to injection into lethally irradiated (160 kV, 25 mA, 6.31 Gy) CD45.2 recipient mice. […]

[4] = tested on: Aspergillus fumigatus; test: Fungal culture of infected organs; assay type: in vivo; details: lungs, liver and heart; 48 h after infection; versus untreated mice
Experimental: The organs (lungs, liver, heart and spleen) were harvested, weighed and tissue homogenates were prepared in PBS. The homogenates were serially diluted and 200 μL or each dilution was plated on Sabouraud dextrose agar (DIFCO). The plates were incubated at 25° C. and pictures were taken after 3-5 days.
Furthermore in the mice succumbing to infection death was slightly delayed from D9-D14 in untreated mice to D10-D15 in the rhMCSF treated group. For analysis of fungal load, mice were killed at 48 h after infection and tissue homogenates were prepared from lungs, liver and heart. […] Fungal tissue cultures were incubated beyond 96 h to verify the typical colony morphology of A. fumigatus.

[5] = tested on: Pseudomonas aeruginosa; test: Bacterial tissue load quantification; assay type: in vivo, mice; details: 18 h after infection
Experimental: The infected mice were killed; the organs (spleen, lungs, liver and heart) were harvested and weighed. To determine CFUs per gram of tissue serial dilutions of tissue homogenates were prepared in PBS and plated on Pseudomonas Isolation Agar (PIA) (Difco laboratories) supplemented with appropriate antibiotics and incubated overnight at 37° C. The colonies were counted after 16-24 h.
For analysis of bacterial load, mice were killed at 18 h after infection, tissue homogenates were prepared from spleen, lungs, liver and heart, and were plated to determine CFU.

| Molecule | PU.1 expression in FACS purified HSC [1] | survival [2] [%] | survival [3] [%] | tissue load of fungal colonies [4] | moribund mice [5] | tissue load of bacteria ([5]; spleen, lungs, liver and heart, versus untreated mice) |
| --- | --- | --- | --- | --- | --- | --- |
| G-CSF: murine granulocyte colony-stimulating factor from PeproTech (protein, UniProt P09920 31-208, looked up) Granulocyte …: VPLVTVSALPPSLPLPRSFLLKSLEQVRKIQASGSVLLEQLCATYKLCHPEELVLLGHSLGIPKASLSGCSSQALQQTQCLSQLHSGLCLYQGLLQALSGISPALAPTLDLLQLDVANFATTIWQQMENLGVAPTVQPTQSAMPAFTSAFQRRAGGVLAISYLQGFLETARLALHHLA | not |  |  |  |  |  |
| GM-CSF: murine granulocyte-macrophage colony-stimulating factor from PeproTech (protein, UniProt P01587 18-141, looked up) Granulocyte-macrophage …: APTRSPITVTRPWKHVEAIKEALNLLDDMPVTLNEEVEVVSNEFSFKKLTCVQTRLKIFEQGLRGNFTKLKGALNMTASYYQTYCPPTPETDCETQVTTYADFIDSLKTFLTDIPFECKKPGQK | not |  |  |  |  |  |
| mouse MCSF: Mouse M-CSF expressed in baculovirus (protein, UniProt P07141 33-552, looked up) Macrophage colony-stimulating …: KEVSEHCSHMIGNGHLKVLQQLIDSQMETSCQIAFEFVDQEQLDDPVCYLKKAFFLVQDIIDETMRFKDNTPNANATERLQELSNNLNSCFTKDYEEQNKACVRTFHETPLQLLEKIKNFFNETKNLLEKDWNIFTKNCNNSFAKCSSRDVVTKPDCNCLYPKATPSSDPASASPHQPPAPSMAPLAGLAWDDSQRTEGSSLLPSELPLRIEDPGSAKQRPPRSTCQTLESTEQPNHGDRLTEDSQPHPSAGGPVPGVEDILESSLGTNWVLEEASGEASEGFLTQEAKFSPSTPVGGSIQAETDRPRALSASPFPKSTEDQKPVDITDRPLTEVNPMRPIGQTQNNTPEKTDGTSTLREDHQEPGSPHIATPNPQRVSNSATPVAQLLLPKSHSWGIVLPLGELEGKRSTRDRRSPAELEGGSASEGAARPVARFNSIPLTDTGHVEQHEGSSDPQIPESVFHLLVPGIILVLLTVGGLLFYKWKWRSHRDPQTLDSSVGRPEDSSLTQDEDRQVELPV |  | 60 | 87.5 |  |  |  |
| rhMCSF: Human M-CSF (rhMCSF, Chiron Corporation Inc., USA, now part of Novartis AG) (protein, UniProt P09603 33-554, looked up) Macrophage colony-stimulating …: EEVSEYCSHMIGSGHLQSLQRLIDSQMETSCQITFEFVDQEQLKDPVCYLKKAFLLVQDIMEDTMRFRDNTPNAIAIVQLQELSLRLKSCFTKDYEEHDKACVRTFYETPLQLLEKVKNVFNETKNLLDKDWNIFSKNCNNSFAECSSQDVVTKPDCNCLYPKAIPSSDPASVSPHQPLAPSMAPVAGLTWEDSEGTEGSSLLPGEQPLHTVDPGSAKQRPPRSTCQSFEPPETPVVKDSTIGGSPQPRPSVGAFNPGMEDILDSAMGTNWVPEEASGEASEIPVPQGTELSPSRPGGGSMQTEPARPSNFLSASSPLPASAKGQQPADVTGTALPRVGPVRPTGQDWNHTPQKTDHPSALLRDPPEPGSPRISSLRPQGLSNPSTLSAQPQLSRSHSSGSVLPLGELEGRRSTRDRRSPAEPEGGPASEGAARPLPRFNSVPLTDTGHERQSEGSFSPQLQESVFHLLVPSVILVLLAVGGLLFYRWRRRSHQEPQRADSPLEQPEGSPLTQDDRQVELPV |  | 40 | 50 | significant decrease | two to three of the 10 mice | significant decrease |
